In patent publication US20250388640A1 (SYNTHEKINE, published 2025):
Where a chain is given by its changes, count along the chain named. Names and notes keep the numbering of the source. Values belong to the binder of their own block, whether it stands above or below them.

Assays:
Test in all cases: cell-based or functional assay
[1] = target: T1, hIL-12 receptor signaling complex (hIL-12Rβ1 and hIL-12Rβ2) (human, UniProt P42701 24-662; Q99665 24-862)
[2] = target: T1, hIL-12 receptor signaling complex …; remark: listed apart in the source
[3] = target: T1, hIL-12 receptor signaling complex …; remark: listed apart in the source
[4] = target: T1, hIL-12 receptor signaling complex …; remark: listed apart in the source

T1 sequence (Q99665 24-862, chain 2 of 2, other chains not shown): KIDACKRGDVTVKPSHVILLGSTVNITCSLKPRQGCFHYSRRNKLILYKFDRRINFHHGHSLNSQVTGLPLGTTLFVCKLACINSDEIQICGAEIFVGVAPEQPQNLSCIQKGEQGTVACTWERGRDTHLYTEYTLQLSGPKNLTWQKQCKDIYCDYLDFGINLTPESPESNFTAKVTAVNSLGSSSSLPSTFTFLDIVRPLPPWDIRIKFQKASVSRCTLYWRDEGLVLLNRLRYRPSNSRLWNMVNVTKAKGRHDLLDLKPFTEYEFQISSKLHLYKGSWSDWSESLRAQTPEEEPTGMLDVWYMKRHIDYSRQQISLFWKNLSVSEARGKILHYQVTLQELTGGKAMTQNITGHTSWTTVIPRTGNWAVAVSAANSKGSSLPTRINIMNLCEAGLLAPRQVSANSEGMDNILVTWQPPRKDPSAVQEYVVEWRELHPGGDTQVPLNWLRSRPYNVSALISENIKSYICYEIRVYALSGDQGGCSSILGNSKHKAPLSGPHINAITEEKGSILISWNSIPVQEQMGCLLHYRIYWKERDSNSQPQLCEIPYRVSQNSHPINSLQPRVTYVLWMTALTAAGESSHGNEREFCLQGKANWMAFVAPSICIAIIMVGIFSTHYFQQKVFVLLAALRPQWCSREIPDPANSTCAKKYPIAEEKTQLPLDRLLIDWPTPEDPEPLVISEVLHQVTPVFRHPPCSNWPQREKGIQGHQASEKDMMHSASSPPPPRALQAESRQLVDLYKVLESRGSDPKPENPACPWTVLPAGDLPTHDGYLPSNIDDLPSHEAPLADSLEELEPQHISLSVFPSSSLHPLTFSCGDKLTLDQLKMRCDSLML

IFNy [gMFI] EC50, CD8+ T Cells [1]: 0.43 nM | IFNy [gMFI] EC50, CD56hi NK Cells [1]: 0.6 nM | IFNy [gMFI] Emax, CD8+ T Cells [1]: 11400 gMFI | IFNy [gMFI] Emax, CD56hi NK Cells [1]: 165000 gMFI | IFNy [%+] EC50, CD8+ T Cells [2]: 0.195 nM | IFNy [%+] EC50, CD56hi NK Cells [2]: 0.022 nM | IFNy [%+] Emax, CD8+ T Cells [2]: 68.2 %+ | IFNy [%+] Emax, CD56hi NK Cells [2]: 92.8 %+
B1: human IL12 mutein, hIL-12p40 E81N, F82A with hIL-12p35-8X His (ligand)
chain 1: IWELKKDVYVVELDWYPDAPGEMVVLTCDTPEEDGITWTLDQSSEVLGSGKTLTIQVKNAGDAGQYTCHKGGEVLSHSLLLLHKKEDGIWSTDILKDQKEPKNKTFLRCEAKNYSGRFTCWWLTTISTDLTFSVKSSRGSSDPQGVTCGAATLSAERVRGDNKEYEYSVECQEDSACPAAEESLPIEVMVDAVHKLKYENYTSSFFIRDIIKPDPPKNLQLKPLKNSRQVEVSWEYPDTWSTPHSYFSLTFCVQVQGKSKREKKDRVFTDKTSATVICRKNASISVRAQDRYYSSSWSEWASVPCS
chain 2: RNLPVATPDPGMFPCLHHSQNLLRAVSNMLQKARQTLEFYPCTSEEIDHEDITKDKTSTVEACLPLELTKNESCLNSRETSFITNGSCLASRKTSFMMALCLSSIYEDLKMYQVEFKTMNAKLLMDPKRQIFLDQNMLAVIDELMQALNFNSETVPQKSSLEEPDFYKTKIKLCILLHAFRIRAVTIDRVMSYLNASGSHHHHHHHH

pSTAT4 [%+] EC50, CD8+ T Cells [3]: 0.76 nM | pSTAT4 [%+] EC50, CD56hi NK Cells [3]: 1.15 nM | pSTAT4 [%+] Emax, CD8+ T Cells [3]: 80.9 %+ | pSTAT4 [%+] Emax, CD56hi NK Cells [3]: 89.3 %+ | pSTAT4 [gMFI] EC50, CD8+ T Cells [4]: 4.33 nM | pSTAT4 [gMFI] EC50, CD56hi NK Cells [4]: 17.2 nM | pSTAT4 [gMFI] Emax, CD8+ T Cells [4]: 102000 gMFI | pSTAT4 [gMFI] Emax, CD56hi NK Cells [4]: 36800 gMFI
B3: human IL12 mutein, hIL-12p40 E81A, F82V with hIL-12p35-8X His (ligand)
chain 1: B1 chain 1 with N59A, A60V
chain 2: B1 chain 2

pSTAT4 [%+] EC50, CD8+ T Cells [3]: 0.87 nM | pSTAT4 [%+] EC50, CD56hi NK Cells [3]: 1.9 nM | pSTAT4 [%+] Emax, CD8+ T Cells [3]: 81.2 %+ | pSTAT4 [%+] Emax, CD56hi NK Cells [3]: 88.2 %+ | pSTAT4 [gMFI] EC50, CD8+ T Cells [4]: 4.5 nM | pSTAT4 [gMFI] EC50, CD56hi NK Cells [4]: 10.3 nM | pSTAT4 [gMFI] Emax, CD8+ T Cells [4]: 101000 gMFI | pSTAT4 [gMFI] Emax, CD56hi NK Cells [4]: 29300 gMFI
B6: human IL12 mutein, hIL-12p40 E81A, F82T with hIL-12p35-8X His (ligand)
chain 1: B1 chain 1 with N59A, A60T
chain 2: B1 chain 2

pSTAT4 [%+] EC50, CD8+ T Cells [3]: 0.09 nM | pSTAT4 [%+] EC50, CD56hi NK Cells [3]: 0.19 nM | pSTAT4 [%+] Emax, CD8+ T Cells [3]: 83.5 %+ | pSTAT4 [%+] Emax, CD56hi NK Cells [3]: 91.7 %+ | pSTAT4 [gMFI] EC50, CD8+ T Cells [4]: 0.37 nM | pSTAT4 [gMFI] EC50, CD56hi NK Cells [4]: 1.19 nM | pSTAT4 [gMFI] Emax, CD8+ T Cells [4]: 108000 gMFI | pSTAT4 [gMFI] Emax, CD56hi NK Cells [4]: 35700 gMFI
B9: human IL12 mutein, hIL-12p40 E81A, F82Y with hIL-12p35-8X His (ligand)
chain 1: B1 chain 1 with N59A, A60Y
chain 2: B1 chain 2

The remaining lines, values behind:

B2: human IL12 mutein, hIL-12p40 E81A, F82R with hIL-12p35-8X His (ligand)
chain 1: B1 chain 1 with N59A, A60R
chain 2: B1 chain 2
pSTAT4 [%+] EC50, CD8+ T Cells [3]: 0.98 nM | pSTAT4 [%+] EC50, CD56hi NK Cells [3]: 1.36 nM | pSTAT4 [%+] Emax, CD8+ T Cells [3]: 80.2 %+ | pSTAT4 [%+] Emax, CD56hi NK Cells [3]: 86.9 %+ | pSTAT4 [gMFI] EC50, CD8+ T Cells [4]: 5.54 nM | pSTAT4 [gMFI] EC50, CD56hi NK Cells [4]: 7.62 nM | pSTAT4 [gMFI] Emax, CD8+ T Cells [4]: 101000 gMFI | pSTAT4 [gMFI] Emax, CD56hi NK Cells [4]: 28000 gMFI

B4: human IL12 mutein, hIL-12p40 E81A, F82I with hIL-12p35-8X His (ligand)
chain 1: B1 chain 1 with N59A, A60I
chain 2: B1 chain 2
pSTAT4 [%+] EC50, CD8+ T Cells [3]: 0.67 nM | pSTAT4 [%+] EC50, CD56hi NK Cells [3]: 0.9 nM | pSTAT4 [%+] Emax, CD8+ T Cells [3]: 79.2 %+ | pSTAT4 [%+] Emax, CD56hi NK Cells [3]: 86 %+ | pSTAT4 [gMFI] EC50, CD8+ T Cells [4]: 5.72 nM | pSTAT4 [gMFI] EC50, CD56hi NK Cells [4]: 10.4 nM | pSTAT4 [gMFI] Emax, CD8+ T Cells [4]: 106000 gMFI | pSTAT4 [gMFI] Emax, CD56hi NK Cells [4]: 30500 gMFI

B5: human IL12 mutein, hIL-12p40 E81A, F82F with hIL-12p35-8X His (ligand)
chain 1: B1 chain 1 with N59A, A60F
chain 2: B1 chain 2
pSTAT4 [%+] EC50, CD8+ T Cells [3]: 0.07 nM | pSTAT4 [%+] EC50, CD56hi NK Cells [3]: 0.13 nM | pSTAT4 [%+] Emax, CD8+ T Cells [3]: 83.3 %+ | pSTAT4 [%+] Emax, CD56hi NK Cells [3]: 93.5 %+ | pSTAT4 [gMFI] EC50, CD8+ T Cells [4]: 0.2 nM | pSTAT4 [gMFI] EC50, CD56hi NK Cells [4]: 0.63 nM | pSTAT4 [gMFI] Emax, CD8+ T Cells [4]: 107000 gMFI | pSTAT4 [gMFI] Emax, CD56hi NK Cells [4]: 36600 gMFI

B7: human IL12 mutein, hIL-12p40 E81A, F82G with hIL-12p35-8X His (ligand)
chain 1: B1 chain 1 with N59A, A60G
chain 2: B1 chain 2
pSTAT4 [%+] EC50, CD8+ T Cells [3]: 1 nM | pSTAT4 [%+] EC50, CD56hi NK Cells [3]: 1.7 nM | pSTAT4 [%+] Emax, CD8+ T Cells [3]: 80.1 %+ | pSTAT4 [%+] Emax, CD56hi NK Cells [3]: 88 %+ | pSTAT4 [gMFI] EC50, CD8+ T Cells [4]: 4.92 nM | pSTAT4 [gMFI] EC50, CD56hi NK Cells [4]: 13.5 nM | pSTAT4 [gMFI] Emax, CD8+ T Cells [4]: 98200 gMFI | pSTAT4 [gMFI] Emax, CD56hi NK Cells [4]: 30300 gMFI

B8: human IL12 mutein, hIL-12p40 E81A, F82D with hIL-12p35-8X His (ligand)
chain 1: B1 chain 1 with N59A, A60D
chain 2: B1 chain 2
pSTAT4 [%+] EC50, CD8+ T Cells [3]: 2.13 nM | pSTAT4 [%+] EC50, CD56hi NK Cells [3]: 3.51 nM | pSTAT4 [%+] Emax, CD8+ T Cells [3]: 76.6 %+ | pSTAT4 [%+] Emax, CD56hi NK Cells [3]: 84.1 %+ | pSTAT4 [gMFI] EC50, CD8+ T Cells [4]: 8.72 nM | pSTAT4 [gMFI] EC50, CD56hi NK Cells [4]: 15.9 nM | pSTAT4 [gMFI] Emax, CD8+ T Cells [4]: 84000 gMFI | pSTAT4 [gMFI] Emax, CD56hi NK Cells [4]: 23300 gMFI

B10: human IL12 mutein, hIL-12p40 E81A, F82Q with hIL-12p35-8X His (ligand)
chain 1: B1 chain 1 with N59A, A60Q
chain 2: B1 chain 2
pSTAT4 [%+] EC50, CD8+ T Cells [3]: 1.08 nM | pSTAT4 [%+] EC50, CD56hi NK Cells [3]: 2.05 nM | pSTAT4 [%+] Emax, CD8+ T Cells [3]: 78.5 %+ | pSTAT4 [%+] Emax, CD56hi NK Cells [3]: 85.1 %+ | pSTAT4 [gMFI] EC50, CD8+ T Cells [4]: 4.92 nM | pSTAT4 [gMFI] EC50, CD56hi NK Cells [4]: 9.87 nM | pSTAT4 [gMFI] Emax, CD8+ T Cells [4]: 91400 gMFI | pSTAT4 [gMFI] Emax, CD56hi NK Cells [4]: 25900 gMFI
